Test results reported in paper PMC2171732 (The Journal of Cell Biology, 2005).

Target: T1, Myo2p globular tail subdomain II (residues 1346–1574), tryptic fragment (S. cerevisiae, UniProt P19524 1346-1574)
T1 sequence (looked up): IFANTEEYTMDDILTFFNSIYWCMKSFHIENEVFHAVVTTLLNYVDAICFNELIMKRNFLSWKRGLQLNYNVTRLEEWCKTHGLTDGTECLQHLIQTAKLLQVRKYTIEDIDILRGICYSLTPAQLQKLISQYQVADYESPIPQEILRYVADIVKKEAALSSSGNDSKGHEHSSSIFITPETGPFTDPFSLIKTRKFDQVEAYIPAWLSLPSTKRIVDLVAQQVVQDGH
Assay: SEC

Kd: ≤ 1 nM
B1: Myo2p globular tail subdomain I (residues 1131–1345), tryptic fragment (domain or fragment, S. cerevisiae, UniProt P19524 1131-1345, looked up)
chain: STPSSGNNHIDSLSVDRENGVNATQINEELYRLLEDTEILNQEITEGLLKGFEVPDAGVAIQLSKRDVVYPARILIIVLSEMWRFGLTKQSESFLAQVLTTIQKVVTQLKGNDLIPSGVFWLANVRELYSFVVFALNSILTEETFKNGMTDEEYKEYVSLVTELKDDFEALSYNIYNIWLKKLQKQLQKKAINAVVISESLPGFSAGETSGFLNK
